Numbering of substitutions follows the chain as printed.

One may read the Kd as the equilibrium constant for the complex coming apart. One may read the koff as a measure of how fast the partners let go of each other. By kon is commonly meant the rate constant with which the complex forms.

This assay addresses T1, hK1 (human tissue kallikrein 1), recombinant (human, UniProt P06870 25-262).
T1 construct: Expressed in P. pastoris from KLK1 cDNA and purified; enzymatically active; also called KLK1; Recombinant (Pichia) Kallikrein
Briefly: SPR. In general terms: In SPR one partner is held on a chip, and binding of the other changes the refractive index at the surface.

B1: M0112-C02 (Fab, V domains shown)
VH: EVQLLESGGGLVQPGGSLRLSCAASGFTFSNYYMLWVRQAPGKGLEWVSYIRSSGGSTRYADSVKGRFTISRDNSKNTLYLQMNSLRAEDTAVYYCAKPTVDGAFDYWGQGTLVTVSS
VL: DIQMTQSPGTLSLSPGDRATLSCRASQSVSSNYLAWYQQKPGQAPRLLIYGASSRATGIPDRFSGSGSGTDFTLTISRLEPEDFGVYYCQQFGSSLFTFGPGTKVNIKR
Regarding B1, the Kd turned out to be 10.9 nM, the koff was found to be 0.00523 s⁻¹ and the kon was found to be 481000 M⁻¹ s⁻¹.

B2: M0103-A03 (Fab, V domains shown)
VH: EVQLLESGGGLVQPGGSLRLSCAASGFTFSHYPMSWVRQAPGKGLEWVSYIRSGGYTTYADSVKGRFTISRDNSKNTLYLQMNSLRAEDTAVYYCARERVFCSGGRCGSYFDYWGQGTLVTVSS
VL: DIQMTQSPSSVSASVGDRVTITCRASQDVRRFLAWYQQKPGKAPKLLIYAASSLQSGVPSRFSGSGSGTDFTLTISSLQPEDFATYYCQQANSFPITFGQGTRLEIKR
Turning to B2, the Kd amounted to 10.6 nM, the koff turned out to be 0.00988 s⁻¹ and the on-rate (kon) came to 931000 M⁻¹ s⁻¹.

B3: M0138-B06 (Fab, V domains shown)
VH: EVQLLESGGGLVQPGGSLRLSCAASGFTFSPYTMSWVRQAPGKGLEWVSGIYPSGGETWYADSVKGRFTISRDNSKNTLYLQMNSLRAEDTAVYYCAKNINLRYDILTGYFDFWGQGTMVTVSS
VL: B2 VL with D28G, V29I, R30S, R31S, F32W, I96L, Q100G, R103K, L104V
For the molecule B3, the Kd was determined as 12.5 nM, the koff worked out at 0.000829 s⁻¹ and the kon amounted to 66400 M⁻¹ s⁻¹.

B4: M0138-E12 (Fab, V domains shown)
VH: EVQLLESGGGLVQPGGSLRLSCAASGFTFSWYVMRWVRQAPGKGLEWVSSIYPSGGQTRYADSVKGRFTISRDNSKNTLYLQMNSLRAEDTAMYYCATGYSSTWGAFDIWGQGTMVTVSS
VL: AQSALTQPASVSGSPGQSITISCSGTSSDVGAYYHVSWYQQHPGKAPKLMIYEVTNRPSGISNRFSGSKSGNTASLTISGLQADDEADYFCSSYTTSNTLVFGGGTKVTVLG
For the molecule B4, the Kd was found to be 10 nM, the koff was determined as 0.00149 s⁻¹ and the kon came out at 148000 M⁻¹ s⁻¹.

B5: M0092-B12 (Fab, V domains shown)
VH: EVQLLESGGGLVQPGGSLRLSCAASGFTFSQYLMAWVRQAPGKGLEWVSSIYPSGGNTNYADSVKGRFTISRDNSKNTLYLQMNSLRAEDTAVYYCARDRSIVPYSSSWYMPRDYYYGMDVWGQGTTVTVSS
VL: DIQMTQSPSSLSASVGDRVTITCRASQGISNYLAWYQQKPGKVPKLLIYAASTLQSGVPSRFSGSGSGTDFTLTISSLQPEDFATYYCQQSYSTPYTFGQGTKLEVRR
As for B5, the equilibrium dissociation constant (Kd) came out at 12.1 nM, the koff was 0.00171 s⁻¹ and the association rate constant (kon) stood at 141000 M⁻¹ s⁻¹.

B6: M0122-H04 (Fab, V domains shown)
VH: EVQLLESGGGLVQPGGSLRLSCAASGFTFSRYAMAWVRQAPGKGLEWVSSIGSSGGVTKYADSVKGRFTISRDNSKNTLYLQMNSLRAEDTAVYYCAAPRGRYYYDSSGYYYGGVFDYWGQGTLVTVSS
VL: AQYELTQPRSVSGSPGQSVTISCTGTSSDVGGFNYVSWYQQHPGKAPKLMIYDVSKRPSGVPDRFSGSKSGTTASLTISGLQADDEADYYCCSYTGNYTYVFGTGTKVTVLG
In the case of B6, the Kd worked out at 11.8 nM, the koff turned out to be 0.000802 s⁻¹ and the kon was found to be 68200 M⁻¹ s⁻¹.

B7: M0104-B03 (Fab, V domains shown)
VH: EVQLLESGGGLVQPGGSLRLSCAASGFTFSNYTMFWVRQAPGKGLEWVSSIYPSGGITRYADSVKGRFTISRDNSKNTLYLQMNSLRAEDTAVYYCARVSFWNAFDIWGQGTMVTVSS
VL: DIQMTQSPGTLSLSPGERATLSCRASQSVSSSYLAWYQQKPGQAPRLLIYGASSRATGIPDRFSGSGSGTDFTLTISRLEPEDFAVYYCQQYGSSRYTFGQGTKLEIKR
As for B7, the Kd was determined as 10.1 nM, the koff worked out at 0.00711 s⁻¹ and the kon worked out at 707000 M⁻¹ s⁻¹.

B8: M0111-B02 (Fab, V domains shown)
VH: EVQLLESGGGLVQPGGSLRLSCAASGFTFSKYWMAWVRQAPGKGLEWVSVIYPSGGQTKYADSVKGRFTISRDNSKNTLYLQMNSLRAEDTAVYYCTLMRYGDRFDYWGQGTLVTVSS
VL: AQYELTQDPAVSVALGQTVRITCQGDSLRSYYASWYQQKPGQAPVLVIYSKSNRPSGIPDRFSGSSSGSTASLTITGAQAEDEADYYCNSRDSSGNHLVFGGGTKLTVL
With B8, the Kd came out at 12.7 nM and the koff was 1170 s⁻¹.

B9: M0099-A09 (Fab, V domains shown)
VH: EVQLLESGGGLVQPGGSLRLSCAASGFTFSRYAMFWVRQAPGKGLEWVSSISPSGGKTRYADSVKGRFTISRDNSKNTLYLQMNSLRAEDTAVYYCARGGGTALDYWGQGTLVTVSS
VL: DIQMTQSPGTLSLSPGERATLSCRASQSVYSSYLAWYQQKPGQAPRLLIYAASNRAIGIPDRFSGSGSGTDFTLTISSMQPEDFATYYCQQSYSTPRFGQGTKLEIKR
Take B9: the Kd was 10.7 nM, the koff amounted to 0.00285 s⁻¹ and the kon is 267000 M⁻¹ s⁻¹.

B10: M0099-E11 (Fab, V domains shown)
VH: EVQLLESGGGLVQPGGSLRLSCAASGFTFSHYTMVWVRQAPGKGLEWVSSIYSSGGRTNYADSVKGRFTISRDNSKNTLYLQMNSLRAEDTAVYYCARIVVVPSAQFYFYYGMDVWGQGTTVTVSS
VL: DIQMTQSPSTLSASVGDRVTITCRASQSISNWLAWYQQKPGRAPKLLIYKASTLESGVPSRFSGSGSGTEFTLTISSLQPDDFATYYCQHYNSYSLFGQGTKLEIKR
For the molecule B10, the Kd was determined as 13.2 nM, the koff turned out to be 0.00796 s⁻¹ and the kon worked out at 605000 M⁻¹ s⁻¹.

B11: M0139-A04 (Fab, V domains shown)
VH: EVQLLESGGGLVQPGGSLRLSCAASGFTFSHYPMTWVRQAPGKGLEWVSSIRPSGGNTGYADSVKGRFTISRDNSKNTLYLQMNSLRAEDTAVYYCARLTGYSSGWFWAYGMDVWGQGTTVTVSS
VL: DIQMTQSPGTLSLSPGDRATLSCRASQSVSSSYLAWYQQKAGQAPRLLIYGAASRATGIPDRFSGSGSGTDFTLTISRLEREDFAVYYCQQYGSSPLITFGQGTRLEIKR
For the molecule B11, the Kd stood at 12.2 nM, the koff amounted to 0.00503 s⁻¹ and the kon is 411000 M⁻¹ s⁻¹.

B12: M0125-C04 (Fab, V domains shown)
VH: EVQLLESGGGLVQPGGSLRLSCAASGFTFSHYVMDWVRQAPGKGLEWVSSIYPSGGWTRYADSVKGRFTISRDNSRNTLYLQMNSLRAEDTAVYYCARRGQWLVLDYWGQGTLVTVSS
VL: AQSELTQPASVSGSPGQSITISCAGTSSDLGGYDYVSWYQQYPGKAPKLIIYQVGRRPSGVSNRFSGSKSGNTASLTISGLQTEDEADYYCSSYTSSRTRVFGGGTRVTVLG
In the case of B12, the Kd was 11.2 nM, the koff amounted to 0.00536 s⁻¹ and the kon is 478000 M⁻¹ s⁻¹.

B13: M0109-E08 (Fab, V domains shown)
VH: EVQLLESGGGLVQPGGSLRLSCAASGFTFSHYTMLWVRQAPGKGLEWVSSIYSSGGSTYYADSVKGRFTISRDNSKNTLYLQMNSLRAEDTAVYYCARVGVWYGMDVWGQGTTVTVSS
VL: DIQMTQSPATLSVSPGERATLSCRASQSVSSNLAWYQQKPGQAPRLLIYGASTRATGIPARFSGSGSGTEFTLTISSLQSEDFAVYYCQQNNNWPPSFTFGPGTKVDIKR
For B13, the Kd stood at 10.1 nM, the koff worked out at 0.00889 s⁻¹ and the on-rate constant (kon) is 880000 M⁻¹ s⁻¹.

B14: M0129-B09 (Fab, V domains shown)
VH: B13 VH with H31R, T33W, L35H, Y52G, S53P, S57V, Y59K, V99H, V101S, Y103G
VL: DIQMTQSPSFLSASVGDRVTITCRASQGISSYLAWYQQKPGKAPKLLIYAASTLQSGVPSRFSGSGSGTEFTLTISSLQPEDFATYYCQQLNSYPRTFGQGTKVEIKR
For B14, the Kd turned out to be 12.7 nM, the koff is 0.022 s⁻¹ and the association rate constant (kon) stood at 1.73e+06 M⁻¹ s⁻¹.

B15: M0103-F07 (Fab, V domains shown)
VH: B13 VH with H31L, T33A, L35H, Y52R, S53P, S57L, Y59K
VL: AQSALTQPASVSGSPGQSITISCTGTSNDIGRTNYVSWYRQDPGRAPKLILFEVSNRPSGISNRFSASKSGSTASLTISGLQADDESDYYCSSCTTAPVCVFGNGTRVTVLG
On to B15, for which the Kd stood at 13.2 nM, the koff came to 0.00743 s⁻¹ and the kon was 564000 M⁻¹ s⁻¹.

B16: M0108-C10 (Fab, V domains shown)
VH: EVQLLESGGGLVQPGGSLRLSCAASGFTFSRYVMAWVRQAPGKGLEWVSVIRPSGGKTLYADSVKGRFTISRDNSKNTLYLQMNSLRAEDTAVYYCARVAGRVGVPATKKNWFDPWGQGTLVTVSS
VL: AQSVLTQPASVSGSPGQSITISCTGTSSDVGGYNYVSWYQQHPGQPPKLIIYEVSNRASGVSNRFSGSKFGNTASLTISGLQSEDEADYHCSSYTSSTTLLFGGGTRLTVLG
In the case of B16, the Kd was 12.2 nM, the koff was determined as 0.00431 s⁻¹ and the kon is 353000 M⁻¹ s⁻¹.

B17: M0096-E11 (Fab, V domains shown)
VH: EVQLLESGGGLVQPGGSLRLSCAASGFTFSHYLMYWVRQAPGKGLEWVSSIYPSGGFTAYADSVKGRFTISRDNSKNTLYLQMNSLRAEDTAVYYCARRGVYGTFDIWGQGTMVTVSS
VL: DIQMTQSPLSLSASVGDRVTMTCRASQTISSYLNWYQQKPGKAPKLLIYTTSSLQSGVPSRFSGSGSGTEFTLTISSLQPEDFATYYCQQSHSSPTFGGGTKVEIKR
For B17, the Kd was 10.1 nM, the koff was found to be 0.00836 s⁻¹ and the kon was 827000 M⁻¹ s⁻¹.

B18: M0105-F02 (Fab, V domains shown)
VH: EVQLLESGGGLVQPGGSLRLSCAASGFTFSRYWMAWVRQAPGKGLEWVSSIGPSGGSTKYADSVKGRFTISRDNSKNTLYLQMNSLRAEDTAVYYCARTARWLSFDYWGQGTLVTVSS
VL: DIQMTQSPSTLSASVGDRVTITCRASQSISSWLAWYQQKPGEAPKLLIYAASSLRNGVPSRFIGSGSGTDFTLTISSLQPEDFATYYCQQSYSTPPTFGGGTKVEIKR
Take B18: the Kd was determined as 10.9 nM, the koff worked out at 0.0103 s⁻¹ and the kon is 947000 M⁻¹ s⁻¹.

B19: M0099-C12 (Fab, V domains shown)
VH: EVQLLESGGGLVQPGGSLRLSCAASGFTFSRYAMHWVRQAPGKGLEWVSSIWPSGGATFYADSVKGRFTISRDNSKNTLYLQMNSLRAEDTAVYYCATSPTLNAFHIWGQGTMVTVSS
VL: AQSVLTQPASVSGSPGQSITISCTGTTSDVGGYKYVSWYQHHPGKVPKLIIYEVNHRPSGVSHRFSGSKSGNTASLIISALQAEDEADYYCYSYTSDSTPYVFGTGTKVTVL
On to B19, for which the Kd stood at 13 nM, the koff is 0.00461 s⁻¹ and the kon turned out to be 354000 M⁻¹ s⁻¹.

The values above are taken from US7329737 (DYAX, dated 2008).
